Test results published in the nanobody polyreactivity screen of Harvey et al. (2022).

Experiment: yeast display, Sf9 membrane polyspecificity reagent, FACS + sequencing; frameworks hold sequencing errors
Procedure, shortened: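 Galactose-induced (36–48 hours) yeast carrying a synthetic nanobody display library were exposed to 10% biotinylated, detergent-solubilized Sf9 membrane reagent at 4 °C for 1 hour. FACS followed streptavidin microbead enrichment, using low and high (top ~1%) gates for expression (anti-HA) and reagent binding (streptavidin). Colony PCR, MiSeq 2 × 250 sequencing and CDR-length filtering followed. Labels for polyreactivity reflect the gate of origin.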

Sequence	polyreactivity (PSR sort gate)
QVQLQESGGGMEQAGGSLRLSCAASGYISWADYMVWYRQAPGKERELVAGIGYGSTTYYADSVKGRFTISRANAKNTAYLQMNSLKPEDTAVYYCAVGWYRDTAYKYWGQGTQVTVSS	low polyreactivity
QVQLQESGGGMVQAGGSLLWCAASGTISYNREMGWYRQAPGKERELVAGIGVGTITYYADSVKGRFTIIRDNAKNTVYLQMNSLKPEDTAVYYCAAHIDGIDSHAYCGQGTQVTVSS	low polyreactivity
QVQLQESGGGMVQAGGSLRLSCAASGYISWADYMGWYRQAPGKERELVAGIGYGSTTYYADSVKGRFTISRDNAKNTAYLQMNSLKPEDTAVYYCSVGWYRDTAYKYWGQGTQVTVSS	low polyreactivity
QVQLQESGGGMVQAGGSLRLSCAASGYISWADYMVWYRQAPGKERELVAGIGYGSTTYYADSVKGRFTISRANAKNTAYLQMNSLKPEDTAVYYCAVGWYRDTAYKYWGQGTQVTVSS	low polyreactivity
QVQLQESGGGPVLAGGSLRLSCAASGTIFVRLDMGWYRPAPGKEREFVATIGSGSSTYYADSVKGSFTISRDNVKNTVYLQMNSLQPEDTAVYYCAVSAAEQSRHYYWDQGTQVTVSS	low polyreactivity
QVQLQESGGLVQAGGSLRLSCAASGSISGRNVMGWYRQAPGKEREFVASITDGSSTNYADSVKGRFTISRDNAKNTVYLQMNSLKPKDTAVYYCAAYAQRAKSFGYWGRGTQVTVSS	low polyreactivity
QVQLQESGGRLVQAGGSMRLSCAASGTISDSGLMGWYRQAPGKERELVAGISSGGITNYADSVKGRFTISRDNAKNTVSLQMNSLKPEDTAVYWGQGTQVTVSS	low polyreactivity
QVQLQESGGVQAGGSLRLSCAASGYISRSDVMGWYRQAPGKERELVATINNGTITYYADSVKGRFTISRDNAKNTVYLQMNSLIPEDTAVHYCAVVQSDTDSLYYWGQGTQVTVSS	low polyreactivity
QVQLQESGGVQAGGSLRLSCAASGYITRSDVMGSYRQAPGKERELVATINNGTMTYYADSEKGRYTISRDNAKKTVYLQKNSQKPEDTAVHYCAVDQSDTDSLYYWGQGTQVTVSS	low polyreactivity
QVQLQESGGVQAGGSLRLSSAATGYIARSDDMGWYRQAPGKERELVATINNGTITYYADSVKGRFTISRDNAKNTVYLQMNSLKPEDTAVHYCAVVQSDTDSLYYWGQGTQVSVSS	low polyreactivity
QVQLQESGRRPGAAGGSPRMSCAASGNIFWVAVMGRYRQAPGKERELGASIGFGCTTYYADSVKCRFTISRDNAKNTVYLQMISLKPEDTAVYYCAAPHYDWGELDYWGQGTQVPVSS	low polyreactivity
QVQLQESGSGLVQAGGSLRLSCAASGNISQYNDIGWYRQAPGKEREPVATINSGSITYYADSVKGRLTISRDNAKNTVYLEMNSLKPEDTAVYYGAVKQHGFVYLEYWGQGTQVTVSR	high polyreactivity
QVQLQESGSGLVQAGGSLRLSCAASGYISLGDNMGWYRQAPGKEREFVATISVGGITYYVDSVKGRFTISRDIAKNTVYLQMNSLKPEDTAVYYCADLDIYYFRYYYWGQGTQVTVSS	low polyreactivity
QVQLQESRGGLVQAGGSLRLSCAATGTIFTDRIMGWYLQAPGKERELVAGISPGTSTNYADSVKGRFTISRDNEKNTVYLQMNSLKPEDTAVYYCAADWSTGNTLPYWGQGSQVTVSS	high polyreactivity
QVQLQESSGGLVQAGGSLRMSCAASGTIFHFHIIGWYRQAPRKEREFVAASSYGTRTYYADSVKGRFTISRDNAKNTVYLQMNSQKPEDTAVYYCAVYDYLEVYCWYWGQGTQVTVRS	low polyreactivity
QVQLQESVGGLVQAGGSLLLSCAASGNIFPTDRMGWYRQAPGKELEFVATISHGGSTNYADSVKGRFTISRDNAKNTVYLEMNSLKPEDTAVYYCAVWSLGRWRHYFWGQGTQVTVSS	low polyreactivity
QVQLQESVGGLVQAGGSLRLSCAASGNIFDADIMGRYRQAPGKERELVASITDGGSTNYADSVKGRFTISLDNAKNTVYLHMNSLKPEDTAVYYCAARPHRYTSRHGYWGQGTQVTVSS	high polyreactivity
QVQLQESVVGLVLAGGSLRLICSASANISVYGSMGWYRKAPGKEREFVATIDPGTNTNYADSVKDRFTISRDNAKNTVFLQINSLKPEYTAVYYCAVEGGSDWPYRYWGQGTQVTVSS	low polyreactivity
QVQLQQSGGGLVQAGGSLRLSCAASGSIFDGFNMGWYRQAPGKAREFVAAIRYGASTYYADSVKGRFTVSRDNAKNSVYLQMNSLNPEDTAVYYCAKAYSDGYFPTFDYDYWGQGTQVTVSS	low polyreactivity
QVQLQVSGGDLVQAGGSLRLSCAASGTIYGLTSMGWYRQAPGKEREFVAAITDGGNTNYADSVKGRFTISRDNAKNSVYLQMISLTPEDTAVYYCALLFSDEAYYAYCGQGTQVTVSS	low polyreactivity
QVQLQVSGGGLVQAGGSLRLSCEASGSIFLTSEMGWYRQAPGIERELVAAIATGTSTNYADSVKGRFTISRDNAKNTVYLQMNSLKPEDTAVYYCATYHYWGQGTQVTVSS	low polyreactivity
QVQLRESGAGGRQPAPELLGERQYFYWSADGLVSQAPGKEREFVAGIDRGTITNYADSVRGRFTISRDNAKNTVFRQMNSLKPEDTAVYYCAVPAYGDPRSYYWGQGTHVTVSS	high polyreactivity
QVQLVASAGGLVQAGRSLRLSCAASGRIFSWYTMGWYRQAPGKERELVADITYSGGSTYYADSVKGRFTISRDNAKNTVYLQMNSLKPEDTAVVYCIADPRWYHFEYGYWGQGTQVTVSS	high polyreactivity
QVQLVASGGGLVQAGGSLRLSCAASGLIFYIYMGWYRQGPGKERELVAVISSSGNSTYYADSVKGRFTISRDNAKNTVYLQMNSLKQEDTAVSYCNASAYYPPSSSRYDYWGQGTQVTVSS	low polyreactivity
QVQLVASGGGLVQAGGSLRLSCSASGSIFKYYAMGWYRQAPGKERELVAAISSSGNTYYADSVKGRFTISRDNAKNTVYLQMNSLKPEDTAVYYCAAGIRRYRTYDYWGQGTQVTVSS	high polyreactivity
QVQLVDSGAGLVQAGGSLRLICAASGSIFPYYAMGWYRQAPGKERELVAGISNGDSTNYADSVKGRFTISGDNAKNTVYLQINSLKPEDTAVYYCSTVLPGGRYYGPYDFWGQGTQVTVSS	low polyreactivity
QVQLVDSGAGLVQAGGSLRLSCAASGRIFYSYAMGWYRQAPGKDRELVARITRGSSTYYADSVKGRFTISRDNAKNTVYLQMNSLKPEDTAVYYCAKSRYTALTNHWSHDYWGQVTQVTVSS	low polyreactivity
QVQLVDSGAGLVQAGGSLRLSCAASGRISYVYAMGWYRQAPGKDRELVAGITWSDGSTFYADSVKGSFTISRDNAKNTVYLQMNSLKPEDTAVYYCAARFNRKILGRYYFWGQGTQVTVSS	high polyreactivity
QVQLVDSGAGLVQAGGSLRLSCAASGSIYYRYALGWYRQAPRQVRELVAAITQSTDSTYYADSVKGRFTISRDNAKNTVYLQMNSLKPEDTAVYYCAAYLVYYRPYAYGYWGQGTQVTVSS	low polyreactivity
QVQLVDSGGALVQAGGSLRLICAASGSTFIINAMGWYRQAPGKDRELVAAISGRGTRTYYADSVKGRFTISRDNAKNSVYLQMKSLKPEDTAVYYCNAVRSLSFTTEHDYWGQGTQVTVSS	high polyreactivity
